Assay results as given in paper PMC2802658 (Biochemistry, 2010).
Like-named read-outs stand apart in the source and are kept apart here. Each block holds one compound with its values, some of them ahead of it.

What was measured:
[1] = molecular target: T1, cation-dependent mannose 6-phosphate receptor (sCD-MPR) (Bos taurus, UniProt P11456, N59Q/N85Q/N96Q/N115Q); experiment: […]-1H HSQC NMR titration; format: binding
T1 sequence (P11456 29-182 N59Q/N85Q/N96Q/N115Q): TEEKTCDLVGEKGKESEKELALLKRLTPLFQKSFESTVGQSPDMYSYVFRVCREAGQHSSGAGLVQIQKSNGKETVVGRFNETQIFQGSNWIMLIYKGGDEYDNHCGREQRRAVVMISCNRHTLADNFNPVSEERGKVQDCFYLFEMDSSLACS

[2] = molecular target: β-glucuronidase (Homo sapiens) (UniProt P08236); conditions: cited from earlier work
[3] = molecular target: β-glucuronidase (Homo sapiens) (UniProt P08236); conditions: cited from earlier work; remark: listed apart in the source
[4] = molecular target: β-glucuronidase (Homo sapiens) (UniProt P08236); conditions: cited from earlier work; remark: listed apart in the source

β-glucuronidase (Homo sapiens), sequence (P08236 23-651): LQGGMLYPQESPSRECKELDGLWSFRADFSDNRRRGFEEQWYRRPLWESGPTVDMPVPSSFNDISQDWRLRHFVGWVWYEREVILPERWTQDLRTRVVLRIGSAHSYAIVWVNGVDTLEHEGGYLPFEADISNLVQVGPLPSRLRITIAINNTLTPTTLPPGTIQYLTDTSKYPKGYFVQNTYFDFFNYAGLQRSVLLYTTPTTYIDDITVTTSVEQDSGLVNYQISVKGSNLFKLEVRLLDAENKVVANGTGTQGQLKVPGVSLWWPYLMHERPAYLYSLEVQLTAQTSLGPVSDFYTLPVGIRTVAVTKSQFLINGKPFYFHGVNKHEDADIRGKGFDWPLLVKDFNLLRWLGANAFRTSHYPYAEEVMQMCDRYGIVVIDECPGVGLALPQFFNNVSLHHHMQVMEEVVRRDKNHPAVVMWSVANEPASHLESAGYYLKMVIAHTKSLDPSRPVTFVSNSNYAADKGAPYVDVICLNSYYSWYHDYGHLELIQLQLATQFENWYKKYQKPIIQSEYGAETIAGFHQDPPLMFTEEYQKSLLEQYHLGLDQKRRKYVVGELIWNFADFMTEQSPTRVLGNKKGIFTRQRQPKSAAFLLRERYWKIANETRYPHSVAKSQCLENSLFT

Kd [1]: ~1000 µM
Compound: O=P(O)(O)OC[C@H]1OC(O)[C@@H](O)[C@@H](O)[C@@H]1O (stereo partly shown) [mannose 6-phosphate]

Compound: cation-dependent mannose 6-phosphate receptor (sCD-MPR) ECD (from UniProt P11456)
Kd [2]: 0.0014 µM

Compound: cation-dependent mannose 6-phosphate receptor (sCD-MPRHis6) ECD (from UniProt P11456)
Kd [3]: 0.0015 µM

Compound: cation-dependent mannose 6-phosphate receptor (from UniProt P11456)
Kd [4]: 0.00028 µM
